Test results: the supplement of paper PMC9233669
Fewer inactive variants are shown than the library holds.

Key:
biotinyl-Phe-oxazolone = assay: self-aminoacylation, catalytic enhancement (BFO) (fold over background); higher = more active; k-Seq, kA / k0A0; sequences stand for … in GGGAAUGGAUCCACAUCUACGAAUUC…UUCACUGCAGACUUGACGAAGCUG
Method in brief: (§1)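 The uncatalyzed rate is the low-activity peak of a bimodal Gaussian fit, and catalytic enhancement is median kA divided by it. The kA values came from pseudo-first-order fits, with 1000 bootstraps, of per-sequence fraction reacted measured by streptavidin capture, triplicate qPCR and Illumina sequencing. Mutagenized RNA pools with a 21-nt variable region (0.43 μM) were reacted with each biotinyl-aminoacyl-oxazolone at 2–1250 μM in 50 μL HEPES/NaCl/KCl/MgCl2/CaCl2 buffer with 5% acetonitrile, pH 6.9–7.0, for 90 minutes at room temperature.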

biotinyl-Leu-oxazolone = assay: self-aminoacylation, catalytic enhancement (BLO) (fold over background); higher = more active; k-Seq, kA / k0A0; sequences stand for … in GGGAAUGGAUCCACAUCUACGAAUUC…UUCACUGCAGACUUGACGAAGCUG
Method in brief: as §1

biotinyl-Trp-oxazolone = assay: self-aminoacylation, catalytic enhancement (BWO) (fold over background); higher = more active; k-Seq, kA / k0A0; sequences stand for … in GGGAAUGGAUCCACAUCUACGAAUUC…UUCACUGCAGACUUGACGAAGCUG
Method in brief: as §1

biotinyl-Met-oxazolone = assay: self-aminoacylation, catalytic enhancement (BMO) (fold over background); higher = more active; k-Seq, kA / k0A0; sequences stand for … in GGGAAUGGAUCCACAUCUACGAAUUC…UUCACUGCAGACUUGACGAAGCUG
Method in brief: as §1

Row | Sequence | self-aminoacylation (biotinyl-Phe-oxazolone) | self-aminoacylation (biotinyl-Leu-oxazolone) | self-aminoacylation (biotinyl-Trp-oxazolone) | self-aminoacylation (biotinyl-Met-oxazolone)
1 | AAGCUUGCUAAUAGUCGCAGG [Fam3.1 aminoacylation ribozyme variant] | 7.7 | 2.14 | 2.15 | 
2 | AAGUGUGCUAAUAGUCGCCAG [Fam3.1 aminoacylation ribozyme variant] | 2.38 | 2.2 | 2.33 | 
3 | AUUACCCUCGUCGUCGAGUGA [Fam2.1 aminoacylation ribozyme variant] | 3.84 | 2.04 | 2.11 | 
4 | AUUACCCUGGUCAUCCAGAGA [Fam2.1 aminoacylation ribozyme variant] | 2.38 | 2.03 |  | 
5 | AUUACCCUGGUCCUCGAGUGG [Fam2.1 aminoacylation ribozyme variant] | 2.88 |  |  | 2.1
6 | AUUCACCUAGGUCCUCGGGAG [Fam2.2 aminoacylation ribozyme variant] | 2.83 | 2.11 |  | 
7 | AUUCACUUAGCUCAUCGGGUG [Fam2.2 aminoacylation ribozyme variant] | 4.96 | 2.03 |  | 
8 | CCACACUUCAAGCAGUCGCUC [Fam1B.1 aminoacylation ribozyme variant] | 4.31 | 2.06 |  | 
9 | CCACUCUUCAAGCAAUCGGGC [Fam1B.1 aminoacylation ribozyme variant] |  | 2.21 |  | 
10 | CCAGGCUUCAAGCAAUCGGUC [Fam1B.1 aminoacylation ribozyme variant] | 83.5 | 2.42 | 40.8 | 
11 | CCGCACUUCAAACAAUCGGUC [Fam1B.1 aminoacylation ribozyme variant] | 157 | 3.41 | 74.3 | 
12 | CCGCACUUCAAGAAAUCGGUC [Fam1B.1 aminoacylation ribozyme variant] | 12.2 |  | 10.3 | 
13 | CCUCACUUCAAGAAAUCGGUC [Fam1B.1 aminoacylation ribozyme variant] | 11 |  | 7.71 | 
14 | CCUCACUUCAAUCAAUCGGUC [Fam1B.1 aminoacylation ribozyme variant] | 39.5 |  | 17.9 | 
15 | CCUCUUCAAACAAUCGGUCUG [Fam1A.1 aminoacylation ribozyme variant] | 85.8 | 2.36 | 38.6 | 
16 | CGACUCCAAACAAUCGGUCUG [Fam1A.1 aminoacylation ribozyme variant] | 3.55 |  | 3.11 | 
17 | CGACUUCAAACAAUCGGUGUG [Fam1A.1 aminoacylation ribozyme variant] | 10.9 | 2.54 | 9.56 | 
18 | CGAGUUCAAACAAUCGGUCUG [Fam1A.1 aminoacylation ribozyme variant] | 6.84 |  | 4.57 | 
19 | CGGCACUUCAAGCAAUCGGUC [Fam1B.1 aminoacylation ribozyme variant] | 34.7 |  | 20.1 | 

Row | Sequence | self-aminoacylation (biotinyl-Phe-oxazolone) | self-aminoacylation (biotinyl-Leu-oxazolone) | self-aminoacylation (biotinyl-Trp-oxazolone) | self-aminoacylation (biotinyl-Met-oxazolone)
20 | CUAAUUCAAACAAUCGGCCUG [Fam1A.1 aminoacylation ribozyme variant] | 5.4 |  | 3.89 | 
21 | CUAAUUCAAACAAUCGGUCUC [Fam1A.1 aminoacylation ribozyme variant] | 6.39 |  | 2.9 | 
22 | CUAAUUCAAACAAUCGGUCUG [Fam1A.1 aminoacylation ribozyme variant] | 7.13 |  | 3.52 | 
23 | CUACACUUCAACCAAUCGGUC [Fam1B.1 aminoacylation ribozyme variant] | 59.2 |  | 30 | 
24 | CUACACUUCAAGGAAUCGGUC [Fam1B.1 aminoacylation ribozyme variant] | 3.89 |  | 4.18 | 
25 | CUACACUUCAAGUAAUCGGUC [Fam1B.1 aminoacylation ribozyme variant] | 13.1 |  | 7.07 | 
26 | CUACCUCAAACAAUCGGCCUG [Fam1A.1 aminoacylation ribozyme variant] | 3.13 | 2.11 | 5.05 | 
27 | CUACCUCAAACAUUCGGUCUG [Fam1A.1 aminoacylation ribozyme variant] | 10.3 | 2.13 | 3.08 | 
28 | CUACGUCAAAAAAUCGGUCUG [Fam1A.1 aminoacylation ribozyme variant] | 5.5 |  | 2.35 | 
29 | CUACUUCAAACAAUCAGUCAG [Fam1A.1 aminoacylation ribozyme variant] | 6.15 |  | 2.43 | 
30 | CUACUUCAAACAAUCAGUCUG [Fam1A.1 aminoacylation ribozyme variant] | 27.8 |  | 9.7 | 
31 | CUACUUCAAACAAUCGGACUG [Fam1A.1 aminoacylation ribozyme variant] | 17.5 |  | 7.87 | 
32 | CUACUUCAAACAAUCGGUCCU [Fam1A.1 aminoacylation ribozyme variant] | 6.8 |  | 3.25 | 
33 | CUACUUCAAACAAUCGGUCGC [Fam1A.1 aminoacylation ribozyme variant] | 46.9 |  | 26.2 | 
34 | CUACUUCAAACAAUCGGUCUC [Fam1A.1 aminoacylation ribozyme variant] | 52.6 |  | 24.6 | 
35 | CUACUUCAAACAAUCGGUCUG [Fam1A.1 aminoacylation ribozyme variant] | 67.9 |  | 31.4 | 
36 | CUACUUCAAACAAUCGGUGUG [Fam1A.1 aminoacylation ribozyme variant] | 10.2 |  | 5.78 | 
37 | CUACUUCAAACAAUCGGUUUA [Fam1A.1 aminoacylation ribozyme variant] | 4.11 |  | 2.11 | 
38 | CUACUUCAAAGAAUCGGCCUG [Fam1A.1 aminoacylation ribozyme variant] | 6.89 | 2 | 8.54 | 

Row | Sequence | self-aminoacylation (biotinyl-Phe-oxazolone) | self-aminoacylation (biotinyl-Leu-oxazolone) | self-aminoacylation (biotinyl-Trp-oxazolone) | self-aminoacylation (biotinyl-Met-oxazolone)
39 | CUACUUCAAAUAAUCGGACUG [Fam1A.1 aminoacylation ribozyme variant] | 6.03 |  | 2.71 | 
40 | CUACUUCAAAUAAUCGGUAUG [Fam1A.1 aminoacylation ribozyme variant] | 7.28 |  | 3.96 | 
41 | CUACUUCAACCAAUCGGUAUG [Fam1A.1 aminoacylation ribozyme variant] | 9.31 |  | 4.25 | 
42 | CUACUUCAAUAAAUCGGUCUG [Fam1A.1 aminoacylation ribozyme variant] | 7.8 |  | 4.71 | 
43 | CUACUUCAAUGAAUCGGUCUG [Fam1A.1 aminoacylation ribozyme variant] | 7.24 |  | 5.68 | 
44 | CUAUUUCAAACAAUCGGCCUG [Fam1A.1 aminoacylation ribozyme variant] | 6.32 |  | 6.15 | 
45 | CUCCUUCAAACAAUCAGUCUG [Fam1A.1 aminoacylation ribozyme variant] | 20 |  | 7.05 | 
46 | CUCCUUCAAACAAUCGGUGUG [Fam1A.1 aminoacylation ribozyme variant] | 8.49 |  | 6.8 | 
47 | CUGCACUUCAAGCAAUCGGUC [Fam1B.1 aminoacylation ribozyme variant] | 52 |  | 28.1 | 
48 | CUGCUUCAAACAAUCGGUCUC [Fam1A.1 aminoacylation ribozyme variant] | 107 | 2.47 | 46 | 
49 | CUUCUUCAAACAAUCGGUCCG [Fam1A.1 aminoacylation ribozyme variant] | 3.96 |  | 2.74 | 
50 | GCACUCUUCAAGCAAUCGGUC [Fam1B.1 aminoacylation ribozyme variant] | 6.58 | 2.07 | 5.27 | 
51 | GUACUUCAAACAAUCGGUAUG [Fam1A.1 aminoacylation ribozyme variant] | 11.5 |  | 9.84 | 
52 | UCAAACUUCAAGCAAUCGGUC [Fam1B.1 aminoacylation ribozyme variant] | 25.8 |  | 15.9 | 
53 | UCAGACUUCAAGCAAUCGGUC [Fam1B.1 aminoacylation ribozyme variant] | 63.8 | 2.62 | 37.2 | 
54 | UUACUCCAAACAAUCGGUCUG [Fam1A.1 aminoacylation ribozyme variant] | 3.73 |  | 2.69 | 
55 | UUACUUCAAACAAUCGGUCGG [Fam1A.1 aminoacylation ribozyme variant] | 18.1 | 2.1 | 14.5 | 
56 | UUACUUCAAACAAUCGGUCUU [Fam1A.1 aminoacylation ribozyme variant] | 17 |  | 9.31 | 
